What was measured:
mouse CRACC = target: T1, mouse CRACC (mouse, UniProt Q8BHK6 23-333); assay: co-immunoprecipitation from IL-2-activated mouse NK cells, anti-CRACC immunoblot
T1 construct: whole, on cells; Endogenous protein in NK cell lysates
T1 sequence (looked up): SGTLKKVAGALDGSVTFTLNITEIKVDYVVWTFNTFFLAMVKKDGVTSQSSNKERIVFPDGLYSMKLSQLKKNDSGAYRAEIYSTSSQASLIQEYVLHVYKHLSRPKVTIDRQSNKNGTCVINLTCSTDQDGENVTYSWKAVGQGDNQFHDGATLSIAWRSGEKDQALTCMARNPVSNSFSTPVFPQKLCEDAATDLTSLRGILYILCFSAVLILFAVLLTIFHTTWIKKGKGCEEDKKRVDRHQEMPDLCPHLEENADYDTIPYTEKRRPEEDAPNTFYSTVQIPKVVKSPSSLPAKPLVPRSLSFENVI
Text: (§1) Association of phosphotyrosine-containing proteins with SAP-related adaptors in mouse NK cells. The indicated SAP-related adaptors were immunoprecipitated from IL-2-activated mouse NK cells, resolved in 8% gels and probed by immunoblotting with anti-phosphotyrosine (P.tyr). The anti-EAT-2 MAbs used for immunoprecipitation react with both EAT-2 and ERT. Anti-CD4 MAb GK1.5 was used as control antibody. IgH: heavy chain of IgG. Efficient immunoprecipitation of the SAP-related adaptors was verified by probing parallel immunoprecipitates with anti-EAT-2/ERT and anti-SAP (data not shown). b. Association of 2B4 with SAP-related adaptors in NK cells. Immunoprecipitates of SAP family adaptors were reprobed by immunoblotting with anti-2B4 (top panels), anti-CRACC (middle panels) and anti-CD84 (bottom panels). The migration of the various SLAM-related receptors was verified by immunoblotting of total cell lysates with the specified antibodies (lane 5).
(§2) Mouse NK cells express three SLAM-related receptors, 2B4, CRACC and CD84, that have apparent molecular masses between 60 and 70 kDa (our unpublished results). To determine if the 70 kDa-tyrosine phosphorylated protein associated with SAP family adaptors was any of these SLAM-related receptors, immunoprecipitates of SAP-related adaptors were probed by immunoblotting with antibodies against each of these SLAM family members (FIG. 5b). […]

mouse CD84 = target: T2, mouse CD84 (mouse, UniProt Q18PI6 22-329); assay: co-immunoprecipitation from IL-2-activated mouse NK cells, anti-CD84 immunoblot
T2 construct: whole, on cells; Endogenous protein in NK cell lysates
T2 sequence (looked up): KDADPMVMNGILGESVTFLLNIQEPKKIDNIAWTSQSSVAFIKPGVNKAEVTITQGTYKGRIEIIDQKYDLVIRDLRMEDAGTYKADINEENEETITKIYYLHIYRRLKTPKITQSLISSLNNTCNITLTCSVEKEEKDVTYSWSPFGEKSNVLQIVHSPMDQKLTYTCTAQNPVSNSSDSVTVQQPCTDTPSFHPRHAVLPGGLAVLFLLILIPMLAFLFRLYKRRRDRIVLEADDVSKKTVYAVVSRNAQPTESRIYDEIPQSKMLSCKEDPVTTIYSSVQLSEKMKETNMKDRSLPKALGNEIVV
Text: as §1, §2

mouse CD16 = target: T3, mouse CD16 (mouse, UniProt P08508 31-261); assay: co-immunoprecipitation from IL-2-activated mouse NK cells (data not shown)
T3 construct: whole, on cells; Endogenous protein in NK cell lysates
T3 sequence (looked up): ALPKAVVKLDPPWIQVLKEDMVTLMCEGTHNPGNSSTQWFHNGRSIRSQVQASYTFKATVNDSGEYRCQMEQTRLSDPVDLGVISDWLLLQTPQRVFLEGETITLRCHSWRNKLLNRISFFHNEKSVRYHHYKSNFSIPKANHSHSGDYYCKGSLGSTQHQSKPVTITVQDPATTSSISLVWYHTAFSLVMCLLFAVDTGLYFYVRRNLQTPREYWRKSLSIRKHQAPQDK

Measured: binding result

B1: mouse SAP (other, UniProt O88890 1-126, looked up)
chain: MDAVTVYHGKISRETGEKLLLATGLDGSYLLRDSESVPGVYCLCVLYQGYIYTYRVSQTETGSWSAETAPGVHKRFFRKVKNLISAFQKPDQGIVTPLQYPVEKSSGRGPQAPTGRRDSDICLNAP
notes: Intracellular adaptor made of an SH2 domain and a short tail
no binding: mouse CRACC | mouse CD84 | mouse CD16

— patent US20100015654A1 (INSTITUT DE RECHERCHES CLINIQUES DE MONTREAL I R C M, published 2010)
